The record followed here is the RNAGym collection of RNA variant scans (doi:10.7554/elife.80360).

The chains are these.
B1: Hairpin Ribozyme (parent)
chain: GUCCUCUUUCACGUGCGCGUGAAAGAGAGAAGUGAACCAGAGAAACACACGUUGUGGUAUAUUACCUGGUA

The variants in this series derive from B1. Nature of the series: self-cleavage, relative activity (ratio to wild type); higher = more cleavage; co-transcriptional.
Regarding G34A A43C, the self-cleavage is 0.229.
The value for U5A A28C was 0.297.
The value for G57U G69C was 0.0914; that for U5G A36U was 0.0604; that for A44U C46A was 0.116.
The value for U8A A39C was 0.396; that for A11G U70C was 0.952.
In the case of A44G U53C, the self-cleavage was determined as 0.248.
As to C18A U60C, the self-cleavage was determined as 1.1.
Under G34U G40C stands 0.232; under C6A U55C, 0.243; under U8A A45C, 0.158.
Under A24U U60C stands 1.09; under U7G A11U, 0.58.
The value for U14C G21C was 0.883; that for U5A A26G was 0.244.
As for A47C G54C, the self-cleavage amounted to 0.228.
The value for C3U C66G was 0.0901.
The value for A47U U67A was 0.103; that for G1A C48A was 0.156.
Under A11G A59C stands 0.17; under C10U A64G, 0.606.
In the case of G27U A28U, the self-cleavage is 0.148.
The value for G40U A71C was 0.319; that for C6A A24C was 0.445; that for A23U G68C was 0.139.
The value for A23U G68A was 0.184; that for C65G G68C was 0.151; that for A39G A41G was 0.619.
Under A26C U60G stands 0.365; under G13C C18A, 0.932.
In the case of U14A A23G, the self-cleavage worked out at 0.814.
The value for U5G U33G was 0.0612.
The value for G1C A30C was 0.207; that for A39C C50U was 0.156; that for C10G C12U was 0.503.
Under A30G C46G stands 0.185; under A41U G57C, 0.178.
With C3U G57C, the self-cleavage came out at 0.094.
Under A28C G51U stands 0.746; under U7G A61C, 0.261; under C6A C65A, 0.492.
Under U9G A41C stands 0.693.
Under U2G A28G stands 0.138; under C4A U55A, 0.163; under G19U U62A, 0.268.
For the variant G34U G56U, the self-cleavage came out at 0.225.
Under G13C C65G stands 0.256.
Turning to G21A A64C, the self-cleavage is 0.207.
The value for C10U G40U was 0.203; that for U20C A61G was 0.0608; that for C4A C18G was 0.198.
Under C38A C50G stands 0.089.
Consider G25A U58G, for which the self-cleavage amounted to 0.496.
Under G19U U70G stands 0.79.
Under U7C G15U stands 1.05.
Turning to C12A A26C, the self-cleavage was determined as 0.393.
Under C37U C50G stands 0.226; under A36G A44G, 0.276; under A26G U67A, 0.148.
Regarding A11U G56A, the self-cleavage is 0.176.
The value for G42U A44C was 0.188; that for U5C C10U was 0.423.
The value for C16G was 0.774.
As for G1U A22U, the self-cleavage worked out at 0.119.
The value for C4A A31G was 0.101; that for G21U C50A was 0.194.
G56A A61U: the self-cleavage was found to be 0.166.
On to A22C A61G, for which the self-cleavage turned out to be 0.123.
For the variant G27C G57A, the self-cleavage turned out to be 0.15.
Under G29A C65A stands 0.0759; under G17A C38U, 0.512; under G17C U62G, 0.216.
The value for A31U A61G was 0.159.
The value for A35G G42U was 0.304.
For C4G U55C, the self-cleavage is 0.122.
Under C18G A59G stands 0.284; under A22U G42A, 0.264.
Under G29C U33C stands 0.224; under C4A U53A, 0.363; under C16U C46U, 0.143.
The value for G25A C66A was 0.15.
For U14G A23U, the self-cleavage came to 0.68.
The value for U20G A30C was 0.194.
The value for G54C U63G was 0.119; that for G17U A35C was 1.03.
Under C37G A49G stands 0.18; under A47C U52A, 0.407; under A31U U55C, 0.0975.
For the variant C6U C66A, the self-cleavage was found to be 0.11.
Under G15A A41G stands 0.92; under G1C C50G, 0.171.
Under C16U U58G stands 0.765; under A41C U53C, 0.822.
The value for A23G G56C was 0.145; that for G34C U70G was 1.23.
On to C16G A61C, for which the self-cleavage stood at 0.2.
As for G15U A41C, the self-cleavage is 1.11.
In the case of C4G C18A, the self-cleavage was 0.194.
The value for G1A U70C was 0.154; that for C48A G54U was 0.176; that for G34C G51U was 1.4.
Under A22C A36U stands 0.581.
Under G17C A45G stands 0.112; under A22U A36C, 0.589.
In the case of U5C U8A, the self-cleavage is 0.197.
For the variant U9C G57U, the self-cleavage was determined as 0.185.
Under C3A G27A stands 0.27; under C12A A24C, 0.914.
The value for U63C U70A was 0.189.
Under C46U C50A stands 0.0957; under U63C A64U, 0.185.
In the case of A24U G40U, the self-cleavage came to 0.187.
The value for C6U A35G was 0.683; that for A23C C46G was 0.092; that for C3U U70C was 0.351.
The value for G21A C50A was 0.306; that for C38G G40A was 0.148; that for A44C U67A was 0.113.
The value for U20G C50A was 0.246.
Take A41G U67C: the self-cleavage stood at 0.483.
In the case of G19A A30G, the self-cleavage stood at 0.149.
On to A30C U53A, for which the self-cleavage is 0.0771.
The value for G27U C37G was 0.109.
Under A61U stands 0.213.
With G21U A41U, the self-cleavage is 1.24.
Under G57C U67A stands 0.257; under G42A U67C, 0.105; under G51U U52G, 0.648.
The value for A22U G68U was 0.188; that for A43C G69C was 0.196; that for G17U A22G was 0.831.
Under C6A C37G stands 0.287; under A31U U53C, 0.133.
As to A30C A39U, the self-cleavage is 0.0707.
The value for A36U U52C was 0.765.
The value for C4G A35U was 0.157; that for U62A C66A was 0.12.
The value for A35U G68A was 0.29; that for C10G A61G was 0.233.
For C46A G54A, the self-cleavage was 0.126.
The value for G1U C66A was 0.242; that for A11G U63A was 0.116; that for A36C A49C was 0.144.
The value for C10A A26G was 0.663; that for U14A C48U was 0.123.
Under G17C A64G stands 0.592; under C3G G27A, 0.266.
Consider C48A U67C, for which the self-cleavage worked out at 0.137.
Regarding A28U U53C, the self-cleavage was found to be 0.769.
U33A A47U: the self-cleavage amounted to 0.127.
The value for U33G A36C was 0.0918; that for A35C C48A was 0.103.
Consider U9C G29C, for which the self-cleavage amounted to 0.1.
Under C4A U5G stands 0.109; under A23G C37A, 0.287.
For C16U C66U, the self-cleavage came out at 0.397.
Turning to A41U U52A, the self-cleavage came out at 1.23.
Under G1U A49G stands 0.234; under A41C U62G, 0.
Under A61G C66A stands 0.246; under G17A A61C, 0.199.
Under G42A A71U stands 0.159; under G13C C46U, 0.218; under U8G G34A, 0.767.
As to U8A A24C, the self-cleavage came out at 0.626.
The value for A49G G69U was 0.148.
